Test results from patent US20140143908A1.

Tests used:
[1] = molecular target: T1, N-terminal truncated OsT6PP-D56NT
T1 chain: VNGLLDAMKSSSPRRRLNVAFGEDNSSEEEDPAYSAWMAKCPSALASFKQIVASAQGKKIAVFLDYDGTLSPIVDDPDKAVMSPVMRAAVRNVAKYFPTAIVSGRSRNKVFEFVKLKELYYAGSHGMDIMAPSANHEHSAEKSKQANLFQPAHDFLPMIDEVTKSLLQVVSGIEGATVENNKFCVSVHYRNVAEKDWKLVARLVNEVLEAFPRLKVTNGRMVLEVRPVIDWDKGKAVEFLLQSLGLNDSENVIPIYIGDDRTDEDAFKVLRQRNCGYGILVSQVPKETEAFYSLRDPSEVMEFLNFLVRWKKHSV

[2] = molecular target: T2, Oryza sativa trehalose-6-phosphate phosphatase, wild type (OsT6PP-WT)
T2 chain: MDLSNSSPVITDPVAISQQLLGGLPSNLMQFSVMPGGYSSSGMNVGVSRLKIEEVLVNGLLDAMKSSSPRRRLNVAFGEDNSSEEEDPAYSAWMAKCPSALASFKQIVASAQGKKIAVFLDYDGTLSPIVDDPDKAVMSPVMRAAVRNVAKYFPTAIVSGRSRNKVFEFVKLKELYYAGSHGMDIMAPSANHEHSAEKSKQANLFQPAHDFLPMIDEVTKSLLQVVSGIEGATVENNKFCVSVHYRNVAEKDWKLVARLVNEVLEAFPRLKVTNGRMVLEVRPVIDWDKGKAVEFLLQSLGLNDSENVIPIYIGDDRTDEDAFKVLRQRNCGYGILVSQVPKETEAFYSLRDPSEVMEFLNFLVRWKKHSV

[3] = molecular target: Oryza sativa trehalose-6-phosphate phosphatase, wild type (OsT6PP-WT) (Oryza sativa) (UniProt Q75WV3); assay: cell-based or functional assay

Row | Binder | fold increase of T6PP activity [1] | T6PP activity, trehalose formed (µM), 20 min, OsT6PP-WT (1 µg/ml) with 0.5 µg/mL OsT6PP-H244D; WT alone 28.7 [2] | T6PP activity, trehalose formed (µM), 20 min, OsT6PP-WT (1 µg/ml) with 1 µg/mL OsT6PP-H244D; WT alone 28.7 [2] | T6PP activity, trehalose formed (µM), 20 min, OsT6PP-WT (1 µg/ml) with 2 µg/mL OsT6PP-H244D; WT alone 28.7 [2] | T6PP activity, trehalose formed (µM), 20 min, OsT6PP-WT (1 µg/ml) with 5 µg/mL OsT6PP-H244D; WT alone 28.7 [2] | T6PP activity, trehalose formed (µM), 20 min, OsT6PP-WT (1 µg/ml) with 10 µg/mL OsT6PP-H244D; WT alone 28.7, H244D alone 2.2 [2] | T6PP activity, trehalose formed (µM), 20 min, OsT6PP-WT (1 µg/ml) with 20 µg/mL OsT6PP-H244D; WT alone 28.7, H244D alone 6.2 [2] | fold increase of T6PP activity [2] | trehalose 6-phosphate phosphatase activity (in vitro) [2] | Trehalose formed (µM), 20 min, mixture of OsT6PP-WT (1 µg/ml) and OsT6PP-H244D (10 µg/ml); WT alone 25.3, H244D alone 1.1 [3] | Trehalose formed (µM), 40 min, mixture of OsT6PP-WT (1 µg/ml) and OsT6PP-H244D (10 µg/ml); WT alone 33.6, H244D alone 4.6 [3] | Trehalose formed (µM), 60 min, mixture of OsT6PP-WT (1 µg/ml) and OsT6PP-H244D (10 µg/ml); WT alone 36.8, H244D alone 5.9 [3]
1 | Oryza sativa trehalose-6-phosphate phosphatase single modification H244D (OsT6PP-H244D) (protein) MDLSNSSPVITDPVAISQQLLGGLPSNLMQFSVMPGGYSSSGMNVGVSRLKIEEVLVNGLLDAMKSSSPRRRLNVAFGEDNSSEEEDPAYSAWMAKCPSALASFKQIVASAQGKKIAVFLDYDGTLSPIVDDPDKAVMSPVMRAAVRNVAKYFPTAIVSGRSRNKVFEFVKLKELYYAGSHGMDIMAPSANHEHSAEKSKQANLFQPAHDFLPMIDEVTKSLLQVVSGIEGATVENNKFCVSVDYRNVAEKDWKLVARLVNEVLEAFPRLKVTNGRMVLEVRPVIDWDKGKAVEFLLQSLGLNDSENVIPIYIGDDRTDEDAFKVLRQRNCGYGILVSQVPKETEAFYSLRDPSEVMEFLNFLVRWKKHSV | a 1.7 fold increase in T6PP activity was observed when N-terminal truncated OsT6PP-D56NT was mixed with OsT6PP-H244D | 34.9 µM | 40.1 µM | 52.3 µM | 71.7 µM | 77.7 µM | 101 µM | An approximately 3-fold increased T6PP activity was observed when OsT6PP-WT was assayed in presence of OsT6PP-H244D | Increased trehalose 6-phosphate phosphatase activity (in vitro) of OsT6PP-WT is observed in the presence of its catalytically inefficient variants, including OsT6PP-H244D, OsT6PP-H244S and OsT6PP-S242E | 89.5 µM | 155 µM | 220 µM
2 | OsT6PP-S242E (protein) MDLSNSSPVITDPVAISQQLLGGLPSNLMQFSVMPGGYSSSGMNVGVSRLKIEEVLVNGLLDAMKSSSPRRRLNVAFGEDNSSEEEDPAYSAWMAKCPSALASFKQIVASAQGKKIAVFLDYDGTLSPIVDDPDKAVMSPVMRAAVRNVAKYFPTAIVSGRSRNKVFEFVKLKELYYAGSHGMDIMAPSANHEHSAEKSKQANLFQPAHDFLPMIDEVTKSLLQVVSGIEGATVENNKFCVEVHYRNVAEKDWKLVARLVNEVLEAFPRLKVTNGRMVLEVRPVIDWDKGKAVEFLLQSLGLNDSENVIPIYIGDDRTDEDAFKVLRQRNCGYGILVSQVPKETEAFYSLRDPSEVMEFLNFLVRWKKHSV |  |  |  |  |  |  |  |  | Increased trehalose 6-phosphate phosphatase activity (in vitro) of OsT6PP-WT is observed in the presence of its catalytically inefficient variants, including OsT6PP-H244D, OsT6PP-H244S and OsT6PP-S242E |  |  | 
3 | OsT6PP-H244S (protein) MDLSNSSPVITDPVAISQQLLGGLPSNLMQFSVMPGGYSSSGMNVGVSRLKIEEVLVNGLLDAMKSSSPRRRLNVAFGEDNSSEEEDPAYSAWMAKCPSALASFKQIVASAQGKKIAVFLDYDGTLSPIVDDPDKAVMSPVMRAAVRNVAKYFPTAIVSGRSRNKVFEFVKLKELYYAGSHGMDIMAPSANHEHSAEKSKQANLFQPAHDFLPMIDEVTKSLLQVVSGIEGATVENNKFCVSVSYRNVAEKDWKLVARLVNEVLEAFPRLKVTNGRMVLEVRPVIDWDKGKAVEFLLQSLGLNDSENVIPIYIGDDRTDEDAFKVLRQRNCGYGILVSQVPKETEAFYSLRDPSEVMEFLNFLVRWKKHSV |  |  |  |  |  |  |  |  | Increased trehalose 6-phosphate phosphatase activity (in vitro) of OsT6PP-WT is observed in the presence of its catalytically inefficient variants, including OsT6PP-H244D, OsT6PP-H244S and OsT6PP-S242E |  |  | 
